The assay deals with T1, human recombinant FGF-2 (human, UniProt P09038 143-288).
T1 construct: basic fibroblast growth factor (FGF-2), human recombinant; also called basic fibroblast growth factor; source: bought: R&D Systems
The assay can be described thus: grating-coupled interferometry; Creoptix WAVEdelta, 4PCP-STA chip; biotinylated CXCL9(74-103) captured on streptavidin; FGF-2 as analyte 4.53 nM-1.10 µM in duplicate; 25 °C; PBS with 30 mM NaCl, 15 mM L-arginine, 0.015% Tween 20, 0.05 mg/mL BSA, pH 7.4; 1:1 binding model with bulk correction. To be noted: both partners purified.

Where no end group is shown, it is not given here. The star is where a group is joined. Biotin = O=C1N[C@H]2[C@H](CS[C@H]2CCCCC(=O)*)N1

Experimental findings from PMC8534003 (Cancers, 2021) are described below.

The Kd is the equilibrium constant for the complex coming apart.

T1 sequence (P09038 143-288): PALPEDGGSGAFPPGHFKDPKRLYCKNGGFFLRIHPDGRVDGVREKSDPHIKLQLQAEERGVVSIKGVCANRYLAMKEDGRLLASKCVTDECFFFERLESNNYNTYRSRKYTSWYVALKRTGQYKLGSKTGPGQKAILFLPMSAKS

B1: biotinylated CXCL9(74-103) (peptide)
peptide: Biotin-KKKQKNGKKHQKKKVLKVRKSQRSRQKKTT
notes: Site-specifically biotinylated at the NH2-terminus with biotin-p-nitrophenyl ester; source: synthetic peptide (Fmoc solid-phase synthesis)
B1: the Kd came out at 100 nM.
